{"source": "patent US20130065819", "proteins": {"B1": {"name": "recombinant caspase-1 (Calbiochem) (protein)", "chain": "NPAMPTSSGSEGNVKLCSLEEAQRIWKQKSAEIYPIMDKSSRTRLALIICNEEFDSIPRRTGAEVDITGMTMLLQNLGYSVDVKKNLTASDMTTELEAFAHRPEHKTSDSTFLVFMSHGIREGICGKKHSEQVPDILQLNAIFNMLNTKNCPSLKDKPKVIIIQACRGDSPGVVWFKDSVGVSGNLSLPTTEEFEDDAIKKAHIEKDFIAFCSSTPDNVSWRHPTMGSVFIGRLIEHMQEYACSCDVEEIFRKVRFSFEQPDGRAQMPTTERVTLTRCFYLFPGH"}}, "key": {"[1]": {"target": "N-terminal FLAG tagged TOE1 mutant D195A"}, "[2]": {"target": "TOE1 mutated at the ExPASy-predicted caspase-1 cleavage site FTAD (position 214-217)"}, "[3]": {"target": "human TOE1 (Target of Egr1)"}, "[4]": {"target": "N-terminal FLAG tagged TOE1 mutant D282A"}, "[5]": {"target": "N-terminal FLAG tagged TOE1 mutant D373A"}, "[6]": {"target": "N-terminal FLAG tagged TOE1 mutant D363A"}}}
{"protein": "B1", "values": [{"measurement": "in vitro caspase-1 cleavage of immunoprecipitated mutant, Western blot", "setting": "[1]", "value": "two of these mutations were found to prevent the appearance of a cleavage product of TOE1 upon incubation with caspase-1. These consisted of the D195 and D282 residues within the sites GLID and DIHD respectively"}, {"measurement": "in vitro caspase-1 cleavage of mutant, Western blot", "setting": "[2]", "value": "when the caspase-1 cleavage site predicted using the ExPASy software was mutated (FTAD), in vitro cleavage was maintained"}, {"measurement": "in vitro digestion of immunoprecipitated TOE1 with recombinant caspase-1, Western blot", "setting": "[3]", "value": "We found that TOE1 was indeed processed by caspase-1, and generated multiple cleaved forms"}, {"measurement": "in vitro caspase-1 cleavage of immunoprecipitated mutant, Western blot", "setting": "[4]", "value": "two of these mutations were found to prevent the appearance of a cleavage product of TOE1 upon incubation with caspase-1. These consisted of the D195 and D282 residues within the sites GLID and DIHD respectively"}, {"measurement": "in vitro caspase-1 cleavage of immunoprecipitated mutant, Western blot", "setting": "[5]", "value": "caspase-1 cleaves TOE1 at residues 363 and 373 as evidenced by the lack of a 17 kDa fragment in the TOE1 mutants containing an alanine at residues 363 and 373"}, {"measurement": "in vitro caspase-1 cleavage of immunoprecipitated mutant, Western blot", "setting": "[6]", "value": "caspase-1 cleaves TOE1 at residues 363 and 373 as evidenced by the lack of a 17 kDa fragment in the TOE1 mutants containing an alanine at residues 363 and 373"}]}
